Data on one protein can be found in publication PMC4208085 (FEBS Open Bio, 2014).

The series deals with the molecule itself. Description: crystal structure.

B1: C-terminal soluble domain of STOPP (stomatin operon partner protein) PH1510 from Pyrococcus horikoshii (domain or fragment, UniProt O59179 371-441, looked up)
chain: KARTGKEEMIGLIGTVVEELNPEGMIKVRGELWKARSKFNGKIEKGEKVRVVDMDGLTLIVVRERKEGGEK
For the protein B1, the binding result is “binds”.
